# Source: doi:10.1101/2025.03.19.644215 (bioRxiv, 2025)
# Molecular target: the molecule itself
# Assay: cryo-EM structure; Dmc1 2.5 uM with 0.125 uM 96-mer ssDNA in HR buffer with 1.5 mM CaCl2 and 5 mM ADP, 30°C 5 min, then 8 mM CHAPSO; helical filament in the ADP-bound state (interdigitated filaments masked to a single filament); filament formation required the ssDNA
protein,measurement,value
"S. cerevisiae Dmc1 (natural protein, Dmc1 meiotic recombinase, Saccharomyces cerevisiae; expressed from a plasmid encoding 6XHisDmc1; Stood in the assay as a helical filament of many protomers, assembled with a 96-nt ssDNA, ADP, Mg2+ and Ca2+; no removal of the His tag is described; also called Dmc1-ADP; source: E. coli BL21 (DE3) Rosetta2, purified (Talon resin, heparin sepharose)) MSVTGTEIDSDTAKNILSVDELQNYGINASDLQKLKSGGIYTVNTVLSTTRRHLCKIKGLSEVKVEKIKEAAGKIIQVGFIPATVQLDIRQRVYSLSTGSKQLDSILGGGIMTMSITEVFGEFRCGKTQMSHTLCVTTQLPREMGGGEGKVAYIDTEGTFRPERIKQIAEGYELDPESCLANVSYARALNSEHQMELVEQLGEELSSGDYRLIVVDSIMANFRVDYCGRGELSERQQKLNQHLFKLNRLAEEFNVAVFLTNQVQSDPGASALFASADGRKPIGGHVLAHASATRILLRKGRGDERVAKLQDSPDMPEKECVYVIGEKGITDSSD",binding result,binds
